According to PMC8989681, “Functional and structural deficiencies of Gemin5 variants associated with neurological disorders” (Life Science Alliance, 2022):

How the values were obtained:
[1] = target: 80S ribosomes, P05388;P63244; assay: sedimentation with native ribosomes (80S fraction), immunoblot quantification; conditions: chain shown with the change; HEK293 cells expressing Xpress-tagged G5845-1508 proteins; parent: est. 1.0; read off a plot
[2] = target: the molecule itself; assay: SEC-MALS; 250 ul of purified TPR-like domain at 1-3 mg/ml on Superdex 200 10/300; 20 mM Tris-HCl pH 6.8, 0.2 M NaCl, 5% glycerol, 1 mM DTT; 0.5 ml/min

Row | Binder | other: G5845-1508 intensity 80S/S30 [1] | stoichiometry N [2]
1 | Xpress-G5_(845-1508)-WT, Q8TEQ6 A951E (protein) ARSLLPLSTSLDHRSKEELHQDCLVLATAKHSRELNEDVSADVEERFHLGLFTDRATLYRMIDIEGKGHLENGHPELFHQLMLWKGDLKGVLQTAAERGELTDNLVEMAPAAGYHVWLWAVEAFAKQLCFQDQYVKAASHLLSIHKVYEAVELLKSNHFYREAIAIAKARLRPEDPVLKDLYLSWGTVLERDGHYAVAAKCYLGATCAYDAAKVLAKKGDAASLRTAAELAAIVGEDELSASLALRCAQELLLANNWVGAQEALQLHESLQGQRLVFCLLELLSRHLEEKQLSEGKSSSSYHTWNTGTEGPFVERVTAVWKSIFSLDTPEQYQEAFQKLQNIKYPSATNNTPAKQLLLHICHDLTLAVLSQQMASWDEAVQALLRAVVRSYDSGSFTIMQEVYSAFLPDGCDHLRDKLGDHQSPATPAFKSLEAFFLYGRLYEFWWSLSRPCPNSSVWVRAGHRTLSVEPSQQLDTASTEETDPETSQPEPNRPSELDLRLTEEGERMLSTFKELFSEKHASLQNSQRTVAEVQETLAEMIRQHQKSQLCKSTANGPDKNEPEVEAEQPLCSSQSQCKEEKNEPLSLPELTKRLTEANQRMAKFPESIKAWPFPDVLECCLVLLLIRSHFPGCLAQEMQQQAQELLQKYGNTKTYRRHCQTFCM | 0.48 | –
2 | Gemin5 TPR-like dimerization domain R1016C (domain or fragment, human, UniProt Q8TEQ6 845-1097, looked up, Tag cut by PreScission protease; also called TPR-like R1016C; source: E. coli BL21-Rosetta (DE3) pLysS, purified (HisTrap, tag cleavage, SEC in 0.2 M NaCl); not shown: His6, N-terminal, cleaved; MBP, N-terminal, cleaved) ARSLLPLSTSLDHRSKEELHQDCLVLATAKHSRELNEDVSADVEERFHLGLFTDRATLYRMIDIEGKGHLENGHPELFHQLMLWKGDLKGVLQTAAERGELTDNLVAMAPAAGYHVWLWAVEAFAKQLCFQDQYVKAASHLLSIHKVYEAVELLKSNHFYREAIAIAKARLCPEDPVLKDLYLSWGTVLERDGHYAVAAKCYLGATCAYDAAKVLAKKGDAASLRTAAELAAIVGEDELSASLALRCAQELLL | – | 2
3 | Gemin5 TPR-like dimerization domain D1019E (domain or fragment, human, UniProt Q8TEQ6 845-1097, looked up, Tag cut by PreScission protease; also called TPR-like D1019E; source: E. coli BL21-Rosetta (DE3) pLysS, purified (HisTrap, tag cleavage, SEC in 0.2 M NaCl); not shown: His6, N-terminal, cleaved; MBP, N-terminal, cleaved) ARSLLPLSTSLDHRSKEELHQDCLVLATAKHSRELNEDVSADVEERFHLGLFTDRATLYRMIDIEGKGHLENGHPELFHQLMLWKGDLKGVLQTAAERGELTDNLVAMAPAAGYHVWLWAVEAFAKQLCFQDQYVKAASHLLSIHKVYEAVELLKSNHFYREAIAIAKARLRPEEPVLKDLYLSWGTVLERDGHYAVAAKCYLGATCAYDAAKVLAKKGDAASLRTAAELAAIVGEDELSASLALRCAQELLL | – | 2

The next lines start with results.

Row | other: G5845-1508 intensity 80S/S30 [1] | Binder | stoichiometry N [2]
4 | 0.46 | Xpress-G5_(845-1508)-WT, Q8TEQ6 D1019E (protein) ARSLLPLSTSLDHRSKEELHQDCLVLATAKHSRELNEDVSADVEERFHLGLFTDRATLYRMIDIEGKGHLENGHPELFHQLMLWKGDLKGVLQTAAERGELTDNLVAMAPAAGYHVWLWAVEAFAKQLCFQDQYVKAASHLLSIHKVYEAVELLKSNHFYREAIAIAKARLRPEEPVLKDLYLSWGTVLERDGHYAVAAKCYLGATCAYDAAKVLAKKGDAASLRTAAELAAIVGEDELSASLALRCAQELLLANNWVGAQEALQLHESLQGQRLVFCLLELLSRHLEEKQLSEGKSSSSYHTWNTGTEGPFVERVTAVWKSIFSLDTPEQYQEAFQKLQNIKYPSATNNTPAKQLLLHICHDLTLAVLSQQMASWDEAVQALLRAVVRSYDSGSFTIMQEVYSAFLPDGCDHLRDKLGDHQSPATPAFKSLEAFFLYGRLYEFWWSLSRPCPNSSVWVRAGHRTLSVEPSQQLDTASTEETDPETSQPEPNRPSELDLRLTEEGERMLSTFKELFSEKHASLQNSQRTVAEVQETLAEMIRQHQKSQLCKSTANGPDKNEPEVEAEQPLCSSQSQCKEEKNEPLSLPELTKRLTEANQRMAKFPESIKAWPFPDVLECCLVLLLIRSHFPGCLAQEMQQQAQELLQKYGNTKTYRRHCQTFCM | –
5 | 0.51 | Xpress-G5_(845-1508)-WT, Q8TEQ6 R1016C (protein) ARSLLPLSTSLDHRSKEELHQDCLVLATAKHSRELNEDVSADVEERFHLGLFTDRATLYRMIDIEGKGHLENGHPELFHQLMLWKGDLKGVLQTAAERGELTDNLVAMAPAAGYHVWLWAVEAFAKQLCFQDQYVKAASHLLSIHKVYEAVELLKSNHFYREAIAIAKARLCPEDPVLKDLYLSWGTVLERDGHYAVAAKCYLGATCAYDAAKVLAKKGDAASLRTAAELAAIVGEDELSASLALRCAQELLLANNWVGAQEALQLHESLQGQRLVFCLLELLSRHLEEKQLSEGKSSSSYHTWNTGTEGPFVERVTAVWKSIFSLDTPEQYQEAFQKLQNIKYPSATNNTPAKQLLLHICHDLTLAVLSQQMASWDEAVQALLRAVVRSYDSGSFTIMQEVYSAFLPDGCDHLRDKLGDHQSPATPAFKSLEAFFLYGRLYEFWWSLSRPCPNSSVWVRAGHRTLSVEPSQQLDTASTEETDPETSQPEPNRPSELDLRLTEEGERMLSTFKELFSEKHASLQNSQRTVAEVQETLAEMIRQHQKSQLCKSTANGPDKNEPEVEAEQPLCSSQSQCKEEKNEPLSLPELTKRLTEANQRMAKFPESIKAWPFPDVLECCLVLLLIRSHFPGCLAQEMQQQAQELLQKYGNTKTYRRHCQTFCM | –
